B1: half loxP (1Y70/1Y71) (dsDNA)
DNA 1: CGGAATTCAGATCTATAACTTCGTATAATGTGTCTAGAGGATCCGC
DNA 2: GCGGATCCTCTAGACACATTATACGAAGTTATAGATCTGAATTCCG

How the values were obtained:
[1] = target: LiCre (asLOV2-Cre chimera) (synthetic chimera (Avena sativa LOV2?)) (UniProt P06956); experiment: SPR; conditions: SPR (Biacore T200, SA chip): 20 mM Tris pH 7.4, 50 mM KCl, 150 mM NaCl, 10 mM MgCl2, 1 mM DTT, 0.05% P20; 25 C; 0.3125-10 nM protein; no blue light
[2] = target: Cre recombinase (UniProt P06956 1-343); experiment: SPR; KD1, first unit; global kinetic fit of half and full site data; 10 mM Mg2+; no blue light; SPR (Biacore T200, SA chip): 20 mM Tris pH 7.4, 50 mM KCl, 150 mM NaCl, 10 mM MgCl2, 1 mM DTT, 0.05% P20; 25 C; 0.3125-10 nM protein; no blue light; conditions: protein: recombinant; tags: N-terminal 6xHis; chain copies: 2; label: 5'-biotin on 1Y70; blunt

Molecule | Kd [1] [nM] | Kd [2] [nM]
CGGAATTCACAACTTCGTATAATGTATGCTATACGAAGTTATGGATCCGC (double strand) [full loxP (1Y68/1Y69)] | 0.0061 | –
CGGAATTCAGATCTATAACTTCGTATAATGTGTCTAGAGGATCCGC (double strand) [half loxP (1Y70/1Y71)] | 0.49 | –
B1 | – | 1.15

Source: publication PMC13225215, “Kinetic properties of optogenetic site-specific DNA recombination by LiCre-loxP”
